According to the supplement of paper PMC10065799, “High-throughput profiling of sequence recognition by tyrosine kinases and SH2 domains using bacterial peptide display” (eLife, 2023):

What was measured:
AncSZ = test: phosphorylation enrichment, bacterial display (enrichment ratio); higher = better substrate or ligand; peptides without Tyr show the background
EPHB1 = EPHB1 (UniProt P54762); test: as above
EPHB2 = EPHB2 (UniProt P29323); test: as above
FGFR1 = FGFR1 (UniProt P11362); test: as above
Sequence of FGFR1 (P11362 whole entry, looked up): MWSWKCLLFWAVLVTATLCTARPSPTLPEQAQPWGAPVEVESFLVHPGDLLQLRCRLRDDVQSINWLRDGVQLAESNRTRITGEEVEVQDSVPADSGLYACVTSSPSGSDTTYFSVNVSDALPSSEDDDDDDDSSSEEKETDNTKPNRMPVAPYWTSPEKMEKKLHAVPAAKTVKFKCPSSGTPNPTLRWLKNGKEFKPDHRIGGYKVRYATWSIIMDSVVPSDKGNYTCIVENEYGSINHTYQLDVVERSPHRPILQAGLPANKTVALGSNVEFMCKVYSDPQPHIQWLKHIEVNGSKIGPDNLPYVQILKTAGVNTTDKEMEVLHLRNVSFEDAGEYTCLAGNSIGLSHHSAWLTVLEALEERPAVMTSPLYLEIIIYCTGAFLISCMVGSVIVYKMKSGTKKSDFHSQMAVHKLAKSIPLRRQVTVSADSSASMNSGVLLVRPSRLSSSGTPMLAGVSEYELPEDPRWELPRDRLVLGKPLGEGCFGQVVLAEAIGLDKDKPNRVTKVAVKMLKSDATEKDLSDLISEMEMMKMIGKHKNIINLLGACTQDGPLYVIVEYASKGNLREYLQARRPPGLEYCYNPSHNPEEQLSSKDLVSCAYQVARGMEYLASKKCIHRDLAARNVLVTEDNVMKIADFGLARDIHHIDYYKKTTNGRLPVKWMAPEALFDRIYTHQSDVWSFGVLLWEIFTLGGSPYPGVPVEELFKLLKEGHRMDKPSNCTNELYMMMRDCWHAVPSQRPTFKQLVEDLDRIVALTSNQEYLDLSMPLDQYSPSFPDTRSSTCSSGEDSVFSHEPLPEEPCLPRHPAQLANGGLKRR

FGFR3 = FGFR3 (UniProt P22607); test: as above
Sequence of FGFR3 (P22607 whole entry, looked up): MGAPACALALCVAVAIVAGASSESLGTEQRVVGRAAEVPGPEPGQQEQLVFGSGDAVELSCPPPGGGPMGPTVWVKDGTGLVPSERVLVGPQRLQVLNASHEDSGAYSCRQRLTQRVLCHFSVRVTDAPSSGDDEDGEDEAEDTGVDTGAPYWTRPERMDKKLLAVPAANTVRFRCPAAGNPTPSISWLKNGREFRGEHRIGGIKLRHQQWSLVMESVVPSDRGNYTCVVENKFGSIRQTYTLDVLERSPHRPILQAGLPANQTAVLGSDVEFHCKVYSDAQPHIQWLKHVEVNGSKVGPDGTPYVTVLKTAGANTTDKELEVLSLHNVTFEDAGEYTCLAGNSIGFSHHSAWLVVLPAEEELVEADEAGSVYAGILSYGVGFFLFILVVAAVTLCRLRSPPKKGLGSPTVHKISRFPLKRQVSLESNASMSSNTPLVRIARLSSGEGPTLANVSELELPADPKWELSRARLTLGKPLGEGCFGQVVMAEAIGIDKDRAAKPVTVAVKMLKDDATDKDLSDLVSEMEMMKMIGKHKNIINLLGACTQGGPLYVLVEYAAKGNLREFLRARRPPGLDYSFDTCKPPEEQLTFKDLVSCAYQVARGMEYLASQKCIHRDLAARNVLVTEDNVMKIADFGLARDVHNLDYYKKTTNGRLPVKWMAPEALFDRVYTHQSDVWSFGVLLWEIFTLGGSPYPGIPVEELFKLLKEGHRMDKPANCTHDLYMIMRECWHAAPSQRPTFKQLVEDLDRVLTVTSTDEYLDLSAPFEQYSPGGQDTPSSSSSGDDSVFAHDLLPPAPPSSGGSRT

Fer (mouse) = test: as above
Fes = Fes (UniProt P07332); test: as above
Sequence of Fes (P07332 whole entry, looked up): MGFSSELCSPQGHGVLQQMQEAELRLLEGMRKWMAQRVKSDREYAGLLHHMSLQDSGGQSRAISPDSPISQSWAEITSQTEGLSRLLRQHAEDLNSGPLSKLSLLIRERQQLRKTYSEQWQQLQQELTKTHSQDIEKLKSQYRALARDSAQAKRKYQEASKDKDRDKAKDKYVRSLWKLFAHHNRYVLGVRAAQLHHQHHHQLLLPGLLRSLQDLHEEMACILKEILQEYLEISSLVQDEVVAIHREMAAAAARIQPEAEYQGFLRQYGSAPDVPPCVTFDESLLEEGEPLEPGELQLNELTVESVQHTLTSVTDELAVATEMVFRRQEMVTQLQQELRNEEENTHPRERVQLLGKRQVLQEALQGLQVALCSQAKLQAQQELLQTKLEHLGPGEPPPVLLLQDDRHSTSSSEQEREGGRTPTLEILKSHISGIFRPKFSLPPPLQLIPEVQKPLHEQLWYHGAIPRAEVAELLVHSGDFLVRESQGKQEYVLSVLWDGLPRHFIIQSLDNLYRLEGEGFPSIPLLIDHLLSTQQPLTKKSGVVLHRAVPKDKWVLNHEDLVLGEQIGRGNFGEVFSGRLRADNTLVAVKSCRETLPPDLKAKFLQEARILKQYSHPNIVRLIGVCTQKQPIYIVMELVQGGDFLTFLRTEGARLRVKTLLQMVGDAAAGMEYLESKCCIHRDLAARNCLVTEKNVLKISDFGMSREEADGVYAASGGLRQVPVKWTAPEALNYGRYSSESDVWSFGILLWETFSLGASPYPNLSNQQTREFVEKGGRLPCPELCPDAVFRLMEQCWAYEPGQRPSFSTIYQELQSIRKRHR

Fyn = Fyn (UniProt P06241); test: as above
Sequence of Fyn (P06241 whole entry, looked up): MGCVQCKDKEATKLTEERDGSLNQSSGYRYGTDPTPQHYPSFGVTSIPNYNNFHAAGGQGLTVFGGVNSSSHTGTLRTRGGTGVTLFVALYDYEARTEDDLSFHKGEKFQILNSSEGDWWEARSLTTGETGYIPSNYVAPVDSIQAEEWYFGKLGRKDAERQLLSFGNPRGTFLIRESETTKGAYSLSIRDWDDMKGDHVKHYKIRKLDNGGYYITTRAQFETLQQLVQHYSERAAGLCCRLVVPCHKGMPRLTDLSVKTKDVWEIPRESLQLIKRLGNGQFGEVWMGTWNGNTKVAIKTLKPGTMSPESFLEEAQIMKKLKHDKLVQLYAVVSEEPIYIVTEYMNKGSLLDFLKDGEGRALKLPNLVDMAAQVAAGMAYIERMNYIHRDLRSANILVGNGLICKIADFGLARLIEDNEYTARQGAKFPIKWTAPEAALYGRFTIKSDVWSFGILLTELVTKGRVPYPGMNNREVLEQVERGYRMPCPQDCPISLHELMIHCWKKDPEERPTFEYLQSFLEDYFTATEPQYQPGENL

Hck = Hck (UniProt P08631); test: as above
Jak2 = Jak2 (UniProt O60674); test: as above
MERTK = MERTK (UniProt Q12866); test: as above
Sequence of MERTK (Q12866 whole entry, looked up): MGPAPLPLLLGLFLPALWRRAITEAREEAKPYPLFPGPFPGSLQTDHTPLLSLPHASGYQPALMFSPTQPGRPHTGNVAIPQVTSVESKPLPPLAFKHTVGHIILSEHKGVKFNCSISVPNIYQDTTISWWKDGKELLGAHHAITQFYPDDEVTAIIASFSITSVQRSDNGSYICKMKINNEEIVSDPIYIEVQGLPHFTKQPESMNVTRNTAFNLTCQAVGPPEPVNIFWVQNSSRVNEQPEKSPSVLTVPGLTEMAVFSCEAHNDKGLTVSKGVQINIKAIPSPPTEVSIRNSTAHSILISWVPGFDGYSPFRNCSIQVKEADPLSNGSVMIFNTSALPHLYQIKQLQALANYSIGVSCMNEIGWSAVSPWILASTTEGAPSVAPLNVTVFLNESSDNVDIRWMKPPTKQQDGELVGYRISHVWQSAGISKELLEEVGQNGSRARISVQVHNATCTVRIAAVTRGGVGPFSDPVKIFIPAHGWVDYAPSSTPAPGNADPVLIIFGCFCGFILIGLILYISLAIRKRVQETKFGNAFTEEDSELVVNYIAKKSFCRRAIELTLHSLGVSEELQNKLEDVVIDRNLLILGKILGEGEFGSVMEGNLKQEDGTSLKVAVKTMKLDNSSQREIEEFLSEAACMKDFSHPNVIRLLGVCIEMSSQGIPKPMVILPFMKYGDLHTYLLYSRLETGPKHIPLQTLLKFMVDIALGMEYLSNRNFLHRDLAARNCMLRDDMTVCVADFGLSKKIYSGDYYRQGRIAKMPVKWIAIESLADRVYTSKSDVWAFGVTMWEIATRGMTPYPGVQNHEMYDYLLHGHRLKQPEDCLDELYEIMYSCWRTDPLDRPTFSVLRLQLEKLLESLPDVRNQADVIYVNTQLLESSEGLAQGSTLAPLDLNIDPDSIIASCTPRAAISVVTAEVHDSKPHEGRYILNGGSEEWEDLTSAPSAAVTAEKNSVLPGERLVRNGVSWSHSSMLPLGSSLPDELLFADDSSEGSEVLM

c-Abl (mouse) = test: as above
c-Src = test: as above
Grb2 SH2 = Grb2 SH2 (UniProt P62993); test: SH2 binding enrichment of the phosphorylated peptide, bacterial display (enrichment ratio); higher = better substrate or ligand; peptides without Tyr show the background
SHP2-C SH2 = test: as above
c-Src SH2 = test: as above
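Throughout, for SH2 binding enrichment of the phosphorylated peptide, bacterial display: peptide library displayed on the E. coli surface as eCPX fusions, selected cells deep-sequenced, score is each peptide's frequency after selection divided by its frequency in the input.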
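Throughout, for phosphorylation enrichment, bacterial display: 11-residue human phosphosite peptides and single-mutation variants displayed on the E. coli surface, counted by deep sequencing, each peptide's frequency after selection divided by its frequency in the unselected input library; frequency after pTyr selection over input frequency; kinase dosed for 20-30% of maximal phosphorylation in three min.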

Sequence of EPHB2 (P29323 whole entry, looked up): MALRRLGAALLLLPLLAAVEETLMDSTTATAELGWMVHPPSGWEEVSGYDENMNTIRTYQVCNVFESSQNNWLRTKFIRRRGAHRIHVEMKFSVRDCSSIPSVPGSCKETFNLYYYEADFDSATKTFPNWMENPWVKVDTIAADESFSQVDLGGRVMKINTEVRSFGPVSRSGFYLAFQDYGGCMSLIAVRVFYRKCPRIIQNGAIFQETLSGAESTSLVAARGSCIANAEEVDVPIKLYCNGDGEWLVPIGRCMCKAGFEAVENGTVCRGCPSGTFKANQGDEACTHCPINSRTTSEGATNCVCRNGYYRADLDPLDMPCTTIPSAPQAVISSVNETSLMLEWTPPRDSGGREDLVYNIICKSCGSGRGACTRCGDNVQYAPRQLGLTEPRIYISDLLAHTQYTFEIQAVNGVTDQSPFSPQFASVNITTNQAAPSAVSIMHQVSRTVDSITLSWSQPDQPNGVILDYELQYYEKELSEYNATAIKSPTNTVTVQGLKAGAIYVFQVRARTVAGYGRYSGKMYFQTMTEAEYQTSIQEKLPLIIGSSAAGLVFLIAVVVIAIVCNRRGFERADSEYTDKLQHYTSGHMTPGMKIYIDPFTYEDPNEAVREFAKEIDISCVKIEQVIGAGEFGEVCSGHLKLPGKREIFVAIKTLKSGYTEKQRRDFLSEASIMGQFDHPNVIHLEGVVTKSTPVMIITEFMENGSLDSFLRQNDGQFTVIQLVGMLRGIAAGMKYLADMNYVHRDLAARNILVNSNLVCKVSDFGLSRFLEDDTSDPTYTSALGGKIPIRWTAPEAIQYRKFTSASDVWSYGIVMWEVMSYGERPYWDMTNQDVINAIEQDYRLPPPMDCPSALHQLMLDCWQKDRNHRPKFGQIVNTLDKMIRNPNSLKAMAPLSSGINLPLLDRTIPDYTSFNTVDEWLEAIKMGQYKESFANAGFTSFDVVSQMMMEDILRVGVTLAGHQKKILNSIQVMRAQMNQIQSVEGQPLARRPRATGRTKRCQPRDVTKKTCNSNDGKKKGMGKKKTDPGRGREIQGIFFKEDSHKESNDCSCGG

SH2 binding enrichment (Grb2 SH2) | SH2 binding enrichment (SHP2-C SH2) | SH2 binding enrichment (c-Src SH2) | Sequence | phosphorylation enrichment (AncSZ) | phosphorylation enrichment (EPHB1) | phosphorylation enrichment (EPHB2) | phosphorylation enrichment (FGFR1) | phosphorylation enrichment (FGFR3) | phosphorylation enrichment (Fer (mouse)) | phosphorylation enrichment (Fes) | phosphorylation enrichment (Fyn) | phosphorylation enrichment (Hck) | phosphorylation enrichment (Jak2) | phosphorylation enrichment (MERTK) | phosphorylation enrichment (c-Abl (mouse)) | phosphorylation enrichment (c-Src)
1.03 | 0.822 | 0.672 | NPQKSYLIRLF [WAS_Y83_F84L_YF] | 0.768 | 0.462 | 0.484 | 0.439 | 0.696 | 0.448 | 0.957 | 0.398 | 0.407 | 0.681 | 0.413 | 0.523 | 0.38
0.775 | 0.647 | 0.655 | HEHKGYNANFC [TGFB2_Y341_P338H] | 0.603 | 0.505 | 0.727 | 0.7 | 0.951 | 0.698 | 0.928 | 0.659 | 0.832 | 0.642 | 0.612 | 0.464 | 0.542
0.627 | 0.721 | 0.355 | RFVTRYIFNRE [HLA-DQB1_Y62_YF] | 1.2 | 0.536 | 0.591 | 0.923 | 0.796 | 0.615 | 1.68 | 0.76 | 0.655 | 0.921 | 0.643 | 0.528 | 0.593
0.773 | 0.733 | 0.393 | QPSPSYDSSRG [TCF12_Y70] | 0.68 | 0.534 | 0.626 | 0.561 | 0.557 | 0.457 | 0.661 | 0.623 | 0.553 | 0.455 | 0.414 | 0.521 | 0.482
0.836 | 0.687 | 0.546 | GDNNIYVTKII [DLG1_Y349_S347N] | 0.806 | 0.525 | 0.556 | 0.574 | 0.61 | 0.595 | 0.991 | 0.894 | 1.21 | 0.942 | 0.461 | 0.701 | 0.93
1.16 | 0.701 | 0.602 | QAKRKYQEASK [FES_Y156] | 0.46 | 0.342 | 0.459 | 0.495 | 0.441 | 0.481 | 0.772 | 0.544 | 0.489 | 0.429 | 0.418 | 0.491 | 0.488
1.02 | 0.577 | 0.704 | CERFSYFGMKA [SLC15A2_Y60_YF] | 1.13 | 0.571 | 0.745 | 1.24 | 0.938 | 0.467 | 1.26 | 0.529 | 0.557 | 2.66 | 0.544 | 0.94 | 0.575
1.64 | 1.47 | 1.24 | GMTLSYLFREL [NDUFS8_Y74_P79L] | 0.888 | 0.514 | 0.55 | 0.53 | 0.604 | 0.431 | 0.905 | 0.451 | 0.487 | 0.758 | 0.447 | 0.603 | 0.383
6.96 | 1.38 | 2.3 | LAARYYNWVSF [FLT4_Y1231] | 1.55 | 1.09 | 1.02 | 4.29 | 3.57 | 5.18 | 1.8 | 0.654 | 0.64 | 2.14 | 4.42 | 1.68 | 1
1.03 | 0.939 | 0.796 | HELYVYKCDEN [DOCK3_Y548] | 1.48 | 0.762 | 0.862 | 0.957 | 1.05 | 0.719 | 1.19 | 0.761 | 0.99 | 1.29 | 0.549 | 0.6 | 1.38
1.14 | 2.39 | 1.09 | NSIGNYYKPWF [DHCR24_Y299] | 1.14 | 14.5 | 15.2 | 5.3 | 4.33 | 0.52 | 0.774 | 0.568 | 1 | 9.63 | 8.27 | 14.1 | 0.69
0.699 | 0.555 | 0.506 | VYAANYYKLLG [ROR2_Y645_D644N] | 0.779 | 3.1 | 2.04 | 7.46 | 5.33 | 0.469 | 1.11 | 1.28 | 1.76 | 3.19 | 5.56 | 1.23 | 1.18
0.842 | 0.816 | 0.73 | SSYDIYHLSRE [KIR3DL2_Y253] | 1.27 | 2.42 | 3.54 | 2.73 | 2.01 | 1.74 | 0.851 | 13 | 12.2 | 0.724 | 6.05 | 1.18 | 9.33
1.32 | 0.811 | 0.701 | DDSNPYINVKL [MTHFD1_Y52_L51P] | 1.45 | 0.551 | 0.614 | 0.631 | 0.884 | 1.2 | 1.66 | 0.645 | 0.606 | 1.16 | 0.526 | 0.846 | 0.59
0.768 | 0.684 | 0.272 | PNATLYKMTSI [SERPINA7_Y40_S43T] | 0.883 | 0.642 | 1.02 | 0.86 | 0.668 | 0.477 | 1.5 | 0.604 | 0.636 | 1.16 | 0.918 | 1.3 | 1.04
0.853 | 0.699 | 0.589 | CGTPDYIAPEI [PRKCG_Y521] | 1.99 | 0.715 | 0.755 | 1.23 | 1.26 | 0.484 | 1.14 | 0.53 | 0.568 | 0.882 | 0.444 | 0.632 | 0.433
1.6 | 1.96 | 2.94 | CTTIHYYYMCN [TP53_Y234_N235Y] | 0.991 | 0.585 | 0.773 | 2.74 | 2.11 | 0.574 | 1.08 | 1.41 | 0.804 | 1.27 | 0.767 | 0.644 | 1.05
